Results as given in patent publication JP2012050437A.

Tests used:
[1] = molecular target: aggregated synthetic Aβ1-42 (human) (UniProt P05067); test: competition Aβ1-42 ELISA; competitor biotin-conjugated m12A11Cγ2a at a fixed concentration
[2] = molecular target: Aβ peptide (bio-DAE peptide); test: Biacore (data not shown); the immobilised Aβ antigen is not given

fold of IC50 against murine and chimeric 12A11 [1]: < 2 fold
Kd [2]: 0.023 µM
B1: humanized 12A11 antibody, version 1 (antibody, V domains shown)
VH: QVQLVESGGGVVQPGRSLRLSCAFSGFSLSTSGMSVGWIRQAPGKGLEWLAHIWWDDDKYYNPSLKSRLTISKDTSKNTVYLQMNSLRAEDTAVYYCARRTTTADYFAYWGQGTTVTVSS
VL: DVVMTQSPLSLPVTPGEPASISCRSSQSIVHSNGNTYLEWYLQKPGQSPQLLIYKVSNRFSGVPDRFSGSGSGTDFTLKISRVEAEDVGVYYCFQSSHVPLTFGQGTKLEIK
